The stoichiometry N is a count of units in the complex or per binding partner.

Assay [1] deals with Beta spike antigen (Sanofi SARS-CoV-2 recombinant prefusion spike trimer, B.1.351 variant) (SARS-CoV-2 (B.1.351, Beta) | bacteriophage T4) (UniProt P0DTC2). Kind of assay: SEC; Superose-6 column, analytical HPLC; antigens at 3 mg/mL stored at 4 °C for several weeks (cold stored) and an aliquot incubated at 37 °C for one day. (In gel filtration, larger molecules generally elute earlier.)

Assay [2] deals with ancestral spike antigen (Sanofi SARS-CoV-2 recombinant prefusion spike trimer, Wuhan Hu-1) (SARS-CoV-2 (Wuhan Hu-1) | bacteriophage T4) (UniProt P0DTC2). Described as above.

For “Beta spike antigen (Sanofi SARS-CoV-2 recombinant prefusion spike trimer, B.1.351 variant) (from UniProt P0DTC2 14-1213) (complex)”, in assay [1], the stoichiometry N came to 3.

As to “ancestral spike antigen (Sanofi SARS-CoV-2 recombinant prefusion spike trimer, Wuhan Hu-1) (from UniProt P0DTC2 14-1213) (complex)”, the stoichiometry N in assay [2] is 3.

The values above are taken from article PMC10805794.
